Several values for one entry are separate records, joined by “and”; a condition that tells them apart may be missing. Equal values may be shown once. Read-outs that look alike come from different tables or passages of the source. Side chains are listed from the residue outwards. Ends that are not written are not given here. Peptide text beside a SMILES is read from it. * marks the point of attachment. Biotin = O=C1N[C@H]2[C@H](CS[C@H]2CCCCC(=O)*)N1
Legend:
[1] = biological target: OmpF porin trimer (outer-membrane protein F) (Escherichia coli) (UniProt P02931); experiment: single-channel electrical recording in planar lipid bilayer
[2] = biological target: OmpF porin trimer (outer-membrane protein F) (Escherichia coli) (UniProt P02931); experiment: as above; remark: listed apart in the source
[3] = biological target: OmpF porin trimer (outer-membrane protein F) (Escherichia coli) (UniProt P02931); experiment: single-channel electrical recording in planar lipid bilayer; single OmpF trimer in a DPhPC bilayer; binder added to the extracellular side; -100 mV (as stated for Figures 2, 3 and 5); 20 mM potassium phosphate pH 6.4, 0.1 M KCl, 20.5 °C
OmpF [4] = biological target: T1, OmpF (Escherichia coli, UniProt P02931); format: binding; parameters: made in house; host or cells: E. coli BZB1107 (ompF-, ompC-), plasmid pNGH72; settings: for k1 / k2 / k3 / k–1 / k–2 / k–3: extrapolated to 0 mV; for k1: DPhPC bilayer, 20 mM potassium phosphate pH 6.4, 0.1 M KCl, 20.5 °C, at least three independent experiments; for k2 / k3 / k–1 / k–2 / k–3: pH 6.4, 0.1 M KCl
T1 sequence (P02931 23-362): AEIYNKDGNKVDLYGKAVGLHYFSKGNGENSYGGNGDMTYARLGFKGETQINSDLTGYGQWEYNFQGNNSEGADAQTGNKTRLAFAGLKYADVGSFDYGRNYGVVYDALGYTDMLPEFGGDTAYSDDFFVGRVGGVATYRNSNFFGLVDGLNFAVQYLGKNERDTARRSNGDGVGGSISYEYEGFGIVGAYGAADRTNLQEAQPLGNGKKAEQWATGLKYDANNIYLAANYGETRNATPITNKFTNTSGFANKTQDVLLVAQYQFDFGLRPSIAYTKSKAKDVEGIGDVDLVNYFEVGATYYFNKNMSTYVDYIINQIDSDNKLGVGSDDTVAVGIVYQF

OmpF (Escherichia coli) = OmpF (Escherichia coli) (UniProt P02931); experiment: ITC; settings: cited from earlier work
[5] = biological target: AEDANS-labelled OBS1-fusion protein (colicin E9 OmpF-binding site 1 fused to a carrier) (UniProt P09883); experiment: stopped-flow FRET (OmpF tryptophans to AEDANS); settings: pH 6.5, 4 °C, no added salt stated (20 mM potassium phosphate only)
[6] = Solubility of IUTD constructs; format: physicochemical
OmpF [7] = biological target: T1, OmpF
[8] = biological target: T2, OmpF porin trimer (outer-membrane protein F) (Escherichia coli, UniProt P02931 23-362); experiment: single-channel electrical recording in planar lipid bilayer; single OmpF trimer in a DPhPC bilayer; mSA-capped peptide added to the periplasmic side; +100 mV (where stated); 20 mM potassium phosphate pH 6.4, 0.1 M KCl, 20.5 °C; settings: both partners purified
T2 sequence (looked up): T1 sequence (P02931 23-362)

OmpF porin trimer [9] = biological target: T3, OmpF porin trimer (E. coli, UniProt P02931 23-362); experiment: single-channel electrical recording in planar lipid bilayers; current-voltage plots (-100 to +100 mV) of individual OmpF pores before and after addition of the binder to the extracellular side; settings: both partners purified
T3 sequence (looked up): T1 sequence (P02931 23-362)

[10] = biological target: T2, OmpF porin trimer (outer-membrane …); experiment: single-channel electrical recording in planar lipid bilayer; single OmpF trimer in a DPhPC bilayer; binder added to the extracellular side; -100 mV (as stated for Figures 2, 3 and 5); 20 mM potassium phosphate pH 6.4, 0.1 M KCl, 20.5 °C; settings: both partners purified
OmpF porin trimer [11] = biological target: T3, OmpF porin trimer; experiment: single-channel electrical recording in planar lipid bilayers; single OmpF trimer in a DPhPC bilayer; peptide added to the extracellular side; phosphate buffer pH 6.4, 100 mM KCl; rate constants at 0 mV by extrapolation from negative applied potentials; Kd for the OmpF monomer (k-1 divided by one-third of k1); settings: both partners purified
[12] = biological target: T2, OmpF porin trimer (outer-membrane …); experiment: single-channel electrical recording in planar lipid bilayer; single OmpF trimer in a DPhPC bilayer; free peptide added to the extracellular (cis) side, negative potentials; constants of Table 1 extrapolated to 0 mV, Kd for a single OmpF subunit; 20 mM potassium phosphate pH 6.4, 0.1 M KCl, 20.5 °C; settings: both partners purified
[13] = biological target: T2, OmpF porin trimer (outer-membrane …); experiment: single-channel electrical recording in planar lipid bilayer; single OmpF trimer in a DPhPC bilayer; free peptide added to the periplasmic (trans) side, positive potentials; constants of Table 1 extrapolated to 0 mV, Kd for a single OmpF subunit; 20 mM potassium phosphate pH 6.4, 0.1 M KCl, 20.5 °C; settings: both partners purified
OmpF porin trimer [14] = biological target: T3, OmpF porin trimer; experiment: single-channel electrical recording in planar lipid bilayers; OmpF trimer with two subunits already occluded by untagged IUTD (added to the extracellular side at -100 mV, rest removed by buffer exchange); 1 µM peptide then added to the periplasmic side at +50 mV; settings: both partners purified
[15] = biological target: T2, OmpF porin trimer (outer-membrane …); experiment: single-channel electrical recording in planar lipid bilayer; single OmpF trimer in a DPhPC bilayer; free peptide added to the periplasmic (trans) side, positive potentials; constants of Table 1 extrapolated to 0 mV, Kd for a single OmpF subunit; 20 mM potassium phosphate pH 6.4, 0.1 M KCl, 20.5 °C; settings: both partners purified; remark: listed apart in the source
[16] = biological target: T2, OmpF porin trimer (outer-membrane …); experiment: single-channel electrical recording in planar lipid bilayer; single OmpF trimer in a DPhPC bilayer; free peptide added to the extracellular (cis) side, negative potentials; constants of Table 1 extrapolated to 0 mV, Kd for a single OmpF subunit; 20 mM potassium phosphate pH 6.4, 0.1 M KCl, 20.5 °C; settings: both partners purified; remark: listed apart in the source
[17] = peptide from the periplasmic side, ± s.d., at least three experiments
[18] = peptide from the extracellular side, ± s.d., at least three experiments

AEDANS-labelled OBS1-fusion protein (colicin E9 OmpF-binding site 1 fused to a carrier), sequence (P09883 whole entry, the tested form may be a part): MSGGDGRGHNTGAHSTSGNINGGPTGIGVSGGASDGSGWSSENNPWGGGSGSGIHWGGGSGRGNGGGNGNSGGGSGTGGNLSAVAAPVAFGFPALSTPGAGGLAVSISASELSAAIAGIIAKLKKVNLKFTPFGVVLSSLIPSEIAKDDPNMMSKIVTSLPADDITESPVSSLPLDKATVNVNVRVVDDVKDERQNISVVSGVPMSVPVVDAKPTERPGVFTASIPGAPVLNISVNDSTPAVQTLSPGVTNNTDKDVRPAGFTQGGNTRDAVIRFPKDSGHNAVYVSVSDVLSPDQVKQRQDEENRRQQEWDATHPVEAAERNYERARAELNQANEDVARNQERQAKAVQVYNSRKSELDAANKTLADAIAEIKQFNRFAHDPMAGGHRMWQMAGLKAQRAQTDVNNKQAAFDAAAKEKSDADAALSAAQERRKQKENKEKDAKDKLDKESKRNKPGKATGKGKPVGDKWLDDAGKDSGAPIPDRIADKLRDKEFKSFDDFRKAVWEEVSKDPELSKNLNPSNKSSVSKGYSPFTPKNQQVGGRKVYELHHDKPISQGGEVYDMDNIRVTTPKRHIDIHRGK

“IUTD-fusion (ColE9_(1–83)-TEV-E9 DNase·Im9His6) (from UniProt P09883 1-83; P13479 1-86) (complex)” gave a k01 (association with the first subunit, at 0 mV) [1] of 9800 M⁻¹ s⁻¹, an other [1] of 181 s⁻¹ and a k21' (unbinding of OBS1 from the second subunit, at 0 mV) [2] of 3.9 s⁻¹. For the same molecule, the other [2] was 5300 s⁻¹, the effective molarity (EM) [3] was 0.9 mM and the koff (failed attempts at threading during the latency) [3] was 300 s⁻¹.

With `C[C@H](NC(=O)CNC(=O)[C@@H](NC(=O)[C@H](CC(N)=O)NC(=O)[C@H](Cc1c[nH]cn1)NC(=O)CNC(=O)[C@H](CCCNC(=N)N)NC(=O)CNC(=O)[C@H](CC(=O)O)NC(=O)CNC(=O)CNC(=O)[C@@H](N)CO)[C@@H](C)O)C(=O)N[C@@H](Cc1c[nH]cn1)C(=O)N[C@@H](CO)C(=O)N[C@H](C(=O)N[C@@H](CO)C(=O)NCC(N)=O)[C@@H](C)O` [OBS1_2–18] (H-SGGDGRGHNTGAHSTSG-NH2) the k1 (OmpF [4]; peptide from the periplasmic side, ± s.d.) was 9.6 ± 0.60 10^6 M^–1 s^–1, the k2 (OmpF [4]; [17]) was 6.1 ± 0.42 10^6 M^–1 s^–1 and the k3 (OmpF [4]; [17]) was 3.2 ± 0.25 10^6 M^–1 s^–1. The “k–1” value (OmpF [4]; [17]) was 43 ± 1.5 s^–1, the “k–2” value (OmpF [4]; [17]) was 78 ± 3.9 s^–1 and the “k–3” value (OmpF [4]; [17]) was 111 ± 6.6 s^–1.

For `CC[C@H](C)[C@H](NC(C)=O)C(=O)N[C@@H](Cc1c[nH]cn1)C(=O)N[C@@H](Cc1c[nH]c2ccccc12)C(=O)NCC(=O)NCC(=O)NCC(=O)N[C@@H](CO)C(=O)NCC(=O)N[C@@H](CCCNC(=N)N)C(=O)NCC(N)=O` [OBS2_54–63] (Ac-IHWGGGSGRG-NH2), the “higher affinity from the periplasmic side than from the extracellular side” value (OmpF [4]; OBS2 peptide, PLB recording) was 200 times, the “slower dissociation when added to the periplasmic side than to the extracellular side” value (OmpF [4]; OBS2 peptide, PLB recording) was 4 orders of magnitude and the k1 (OmpF [4]; peptide from the extracellular side, ± s.d.) was 4.0 ± 0.60 10^6 M^–1 s^–1. For the same molecule, the k3 (OmpF [4]; peptide from the extracellular side, fewer events (<100), error relatively large) was 0.97 ± 0.50 ^b 10^6 M^–1 s^–1, the k2 (OmpF [4]; [18]) was 2.2 ± 0.64 10^6 M^–1 s^–1 and the “k–1” value (OmpF [4]; [18]) was 1.3 ± 0.10 × 10^4 s^–1. The “k–2” value (OmpF [4]; [18]) was 2.5 ± 0.34 × 10^4 s^–1 and the “k–3” value (OmpF [4]; [18]) was 3.2 ± 0.47 × 10^4 s^–1.

In the case of “Colicin E9 OBS1 2-18 (from UniProt P09883)”, the Kd (OmpF (Escherichia coli)) is given as 1.8 µM.

In the case of “Colicin E9 OBS2 54-63 (from UniProt P09883)”, the Kd (OmpF (Escherichia coli)) is given as 24 µM.

With OmpF porin (outer membrane protein F) the “k1 (association rate constant)” value [5] was 9.80 ± 0.31 μM^–1 s^–1 and the “k–1 (dissociation rate constant)” value [5] was 3.22 ± 0.03 s^–1.

In the case of ColE9_2–83-ENLYFQ [IUTD], the solubility [6] is reported as no more than 5 µM, the “k12′ (rebinding)” value (OmpF [7]) is reported as “≈ 10^3 s^–1” and the “Association with a first subunit: k01” value (OmpF [7]; SD) is reported as 6.3 ± 1.9 104 M-1s-1 and 10 ± 4.1 104 M-1s-1. The “Initial binding of the OBS1 sequence to a second subunit: k12” value (OmpF [7]; SD) was 58 ± 13 s⁻¹ and 38 ± 17 s⁻¹, the “Rebinding of the OBS1 sequence to a second subunit: k12’” value (OmpF [7]; SD) was 2200 ± 270 s⁻¹ and 1400 ± 340 s⁻¹ and the “Unbinding of the OBS1 sequence from the second subunit: k21” value (OmpF [7]; SD) was 2.6 ± 1.1 s⁻¹ and 3.4 ± 0.7 s⁻¹. The “k01, association with the first OmpF subunit” value (OmpF [7]; pH 6.4) was “≈ 10^4 M^–1 s^–1”, the “k12, initial binding of OBS1 to the second OmpF subunit” value (OmpF [7]; pH 6.4) was “≈ 10 ^2 s^–1” and the “occlusion of OmpF subunits after addition to the extracellular side (in words)” value (OmpF [7]; pH 6.4) was “sequential occlusion of two OmpF subunits”.

With SGGDGRGHNTGAHSTSGSSGGSSGGSSGGC([HPDP-Biotin]) (also: bound to monovalent streptavidin) [OBS1–mSA (OBS1_(2-18)-Linker-Cys-HPDP-Biotin bound to monovalent streptavidin)] the koff [8] was roughly 600 s⁻¹ and the kon [8] was roughly 5e+06 M⁻¹ s⁻¹.

B1: untagged IUTD (ColE9_(2-83)-ENLYFQ) (domain or fragment)
chain: SGGDGRGHNTGAHSTSGNINGGPTGIGVSGGASDGSGWSSENNPWGGGSGSGIHWGGGSGRGNGGGNGNSGGGSGTGGNLSAENLYFQ
B1: binds (OmpF porin trimer [9]).

B2: free IUTD (ColE9_(2–83)-ENLYFQ) (domain or fragment)
chain: B1 chain
B2: binds [10].

SGGDGRGHNTGAHSTSG-NH2 gave a Kd (OmpF porin trimer [11]) of 5400 µM.

Molecule H-SGGDGRGHNTGAHSTSG-NH2 has a Kd [12] of 5000 µM and a Kd [13] of 13 µM.

SGGDGRGHNTGAHSTSGNINGGPTG-NH2 (peptide, UniProt P09883 2-26, looked up) [OBS1_(2-26) peptide (NH2-OBS1_(2-26)-CONH2)]: binds (OmpF porin trimer [14]).

C([HPDP-Biotin])GGSSGGSSGGSSIHWGGGSGRG (also: bound to monovalent streptavidin) [mSA–OBS2 (Biotin-HPDP-Cys-Linker-OBS2_(54-63) bound to monovalent streptavidin)]: binds [8].

Ac-IHWGGGSGRG-NH2 [OBS2_(54-63) peptide (acetyl-OBS2_(54-63)-CONH2)] showed a Kd [15] of 60 µM and a Kd [16] of 11000 µM.

Source: article PMC7366379 (Journal of the American Chemical Society, 2020)
